Experimental data reported in the supplement of paper PMC10126150.
± gives the standard deviation of the averaged measurements.

test system: ATP; experiment: switch fluorescence ratio, 500 uM ATP over buffer (Cy3 cluster intensity, sum of 5 cycles each) (fold (ratio)); higher = stronger signal-on switching upon ATP binding; sequences stand for … in TCGTCGGCAGCGTCAGATGTGTATAAGAGACAGTTTTTTTTTTTTTTTTTTTTTTTTT…TC; settings: aptamer strand: ATP DNA aptamer (quencher-CACCTGGGGGAGTATTGCGGAGGAAGG + anchor), 100 nM annealed; ATP concentration: 500 uM
Method in brief: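 Exposure to 500 uM ATP lasted 15 min at 22 °C before imaging, and a selection-buffer image was taken beforehand, for Cy3-labelled switching-strand clusters on a modified Illumina MiSeq flow-cell annealed to 100 nM quencher-labelled ATP aptamer. Five buffer/ATP cycles were run with NaOH stripping and re-annealing between them. The fluorescence ratio per cluster is summed target-cycle over summed buffer-cycle Cy3 intensity, averaged per switch-domain sequence. Clusters outside 100-1000 RFU were excluded.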

Sequence | switch fluorescence ratio
CATACGTCTG | 1.04 ± 0.017
TGCAGGGACG | 1 ± 0.03
AGGGGGAGCA | 0.9697 ± 0.0045
TTCACTTTTG | 1.01 ± 0.028
GGTCTGTATT | 0.972 ± 0.012
ACTAGTGTCA | 1 ± 0.04
TTTCGGGGTA | 1 ± 0.045
TAACAAGGCA | 0.985 ± 0.013
TTTAACGGGA | 1.15 ± 0.17
TCATAGTCGG | 1 ± 0.024
GCTTAAGTTA | 1 ± 0.057
ATGCCGGAG | 0.986 ± 0.028
TTCTTTTATG | 1.02 ± 0.021
TTAGGGAAGG | 0.993 ± 0.02
TGTTGGTTCG | 0.97 ± 0.062
AGGCTGGAGG | 1.01 ± 0.038
CGCTATTGGT | 1.002 ± 0.0043
GGGTCCAAAT | 1.02 ± 0.04
TAGGGAAATA | 1 ± 0.051
GGTTGAGGTC | 1 ± 0.023
GAATCGTAGC | 1 ± 0.022
TTTGTGGGAC | 1.11 ± 0.066
AGCAACCTTT | 1.16 ± 0.039
TTTGTTGGAA | 0.99 ± 0.025
TTTCTGTGCG | 1.001 ± 0.0072

Sequence | switch fluorescence ratio
GGCGGAGAGG | 1.08 ± 0.022
ATGCTATGCG | 1.008 ± 0.01
TAAAAAATGT | 1 ± 0.019
AAATATTTAT | 0.971 ± 0.018
AGATGCGGTA | 1.01 ± 0.029
CGAACTGCAG | 1.034 ± 0.0016
GCTAAAGGGA | 1.03 ± 0.042
TTTTACGGTT | 1.03 ± 0.069
AATAATCGGC | 0.994 ± 0.06
GGACTCTCGG | 0.967 ± 0.024
TGTCGACCG | 0.99 ± 0.014
GGGAGGTGTT | 1.037 ± 0.009
AAGGGTAAAT | 0.996 ± 0.033
ACCGGTTTTC | 0.984 ± 0.023
TTGGGCAACA | 1.05 ± 0.079
TCATGCTGAG | 0.98 ± 0.0077
AAGTTGGTGT | 1.02 ± 0.043
AATATGTCGG | 1 ± 0.021
GAAGGTGAGT | 1.03 ± 0.014
TTACGAGGCG | 1.004 ± 0.0032
CTTAGATATT | 1.01 ± 0.045
ATTTTTGAGA | 0.986 ± 0.017
GGGTTTGGCG | 0.999 ± 0.2
ATTAGCGTCA | 0.991 ± 0.018
GTGTTGTTCG | 0.995 ± 0.015

Sequence | switch fluorescence ratio
CAGTAGGCAG | 0.95 ± 0.016
TAAATCGTAG | 0.991 ± 0.0099
TTAAGGGGA | 1.06 ± 0.11
GGATCCTTTC | 1.23 ± 0.083
GCGAATATCT | 1.02 ± 0.037
TATGATTACG | 1.03 ± 0.013
CGGTTAACGT | 1.01 ± 0.033
TGGGATCAGT | 0.99 ± 0.021
TGGGGCTTGG | 1.01 ± 0.051
GATTATTGGG | 0.988 ± 0.036
TAATTGGGAA | 0.997 ± 0.035
ATAATGGCCT | 1.02 ± 0.026
TTTCGGGCGG | 0.999 ± 0.038
ATTGCCGCTC | 1.04 ± 0.036
ATAGGATGGA | 1 ± 0.029
TTCACGAAGA | 1 ± 0.0015
TTGCGTAAAA | 0.961 ± 0.047
GCTTGTTACG | 0.98379 ± 0.00012
GATCGAGTTA | 1.034 ± 0.0073
ATGCATAGAT | 1.01 ± 0.032
AGTTTTGAG | 0.9928 ± 0.0097
GCATCCGAAG | 1.274 ± 0.0035
GATTTTTTGC | 0.98176 ± 0.00098
CACGCGGTGG | 1.02 ± 0.13
GAAATATGTT | 0.999 ± 0.014

Sequence | switch fluorescence ratio
GATGTAAGGT | 1.02 ± 0.029
GAGTGCTAAA | 1.01 ± 0.0053
AGCGTTGATG | 1.01 ± 0.03
CAGGGCTATG | 1.01 ± 0.016
ATGGGGGCAC | 0.971 ± 0.032
CTGTGGGTTT | 1.01 ± 0.026
TTCGGGTGTG | 0.999 ± 0.025
AACGGGATTA | 0.987 ± 0.047
TGGGGGCTTG | 0.993 ± 0.024
GGCATCGCCG | 0.954 ± 0.013
CGAGGTTGGG | 1.002 ± 0.0028
ATCAGCAGGC | 1.6 ± 0.045
CCGGGCAGAG | 1.96 ± 0.071
GGCCGACTTG | 1 ± 0.043
TCTGGGGCCG | 1.02 ± 0.065
GAGGTTCGCT | 0.979 ± 0.069
CGGTTGTGTA | 1.03 ± 0.023
GCGTAAAACG | 0.977 ± 0.04
TTGACGGAGG | 0.983 ± 0.032
GGGGCGGGAG | 1.03 ± 0.042
TCCGAGTTGG | 1.05 ± 0.023
TTTTGCAATT | 1.98 ± 1.3
AGTAATAGGA | 1.03 ± 0.076
CATCGAGATG | 1.01 ± 0.014
ACTGGGTTTC | 0.99 ± 0.054

Sequence | switch fluorescence ratio
GTGGTGAAGG | 0.99 ± 0.039
GCGACGGGAG | 1.01 ± 0.013
GATTGTAGTG | 0.993 ± 0.032
GGGTTTCAGT | 0.9503 ± 0.0066
CTTATAATTT | 0.9947 ± 0.0082
GGTCTCTGGG | 1 ± 0.016
TGCTGCGACG | 1.003 ± 0.0022
TTAGTTGAAT | 0.985 ± 0.04
GGGGGTTATT | 0.989 ± 0.051
ACGCTTTACC | 1.89 ± 0.11
TATTAATGTG | 0.974 ± 0.042
GAGTGGTTAG | 0.9884 ± 0.0017
GTGGAAGGCA | 0.9925 ± 0.0025
GGGTTTGCCT | 1.0216 ± 0.0002
TTAATGCTTT | 1.13 ± 0.23
ACGAATGTTG | 0.9918 ± 0.0029
AAAGCTCTGT | 0.992 ± 0.012
ATTTTTAGTG | 1.008 ± 0.0068
GTCAACGCCG | 1.02 ± 0.018
CTTTGGCGCC | 0.986 ± 0.014
TTGAGGGTAA | 0.99263 ± 0.00084
TTTTTTTCGT | 1.07 ± 0.21
CTATGGCCGG | 0.969 ± 0.024
GACGGGGACA | 1.06 ± 0.023
GGTTTTCACC | 0.9866 ± 0.0065

Sequence | switch fluorescence ratio
TTTAAGTACG | 1.21 ± 0.048
ACGTGTCGGT | 1.028 ± 0.0037
AGGTGGTGAC | 0.979 ± 0.018
GAGTTGTCGA | 0.994 ± 0.022
TGGGTTGATT | 1.01 ± 0.031
TCCGTCGCAA | 2.23 ± 0.41
GGTTTTTGTT | 0.991 ± 0.039
TCGCGCAGAA | 1.061 ± 0.0063
TCTGTCTATA | 1.03 ± 0.026
GGATGTGGGG | 0.969 ± 0.034
TTTTGGGGGA | 0.999 ± 0.04
TAATTTTAGG | 0.996 ± 0.012
CGTATTTGAG | 1 ± 0.037
TTAAATAGCG | 0.982 ± 0.036
CATTGAGGGT | 0.968 ± 0.052
TTCATCGAGC | 1.019 ± 0.0076
CAAAGTTCGC | 0.9838 ± 0.0076
AGTGGGGATG | 1.01 ± 0.013
TGGTATGTGT | 1.003 ± 0.0057
AGTGACAACA | 1.007 ± 0.0021
GGGGGATCAG | 0.992 ± 0.045
TACTTAATGT | 1.032 ± 0.0033
CGCATGAGGC | 1.18 ± 0.045
TTAGGGGGAA | 1.01 ± 0.025
TATTACACAT | 1.01 ± 0.04

Sequence | switch fluorescence ratio
CCAATGTTTT | 0.98 ± 0.016
AATTTTGAGG | 0.984 ± 0.034
AGCTAGCGTT | 0.997 ± 0.024
CGTAGGTGCA | 1.05 ± 0.022
AATGTCATCA | 0.993 ± 0.013
TGTGTGGCGT | 1.003 ± 0.0042
CTATTCAGGG | 1.02 ± 0.066
TGGGGTACAT | 0.991 ± 0.016
CGAAAATGGG | 0.9772 ± 0.0058
GGGTTGGAGT | 0.9965 ± 0.0081
GGGGATGTGA | 0.967 ± 0.037
TTTTGCGGGG | 1.08 ± 0.15
CTGGTAGACT | 0.992 ± 0.023
ATATCAATC | 1.02 ± 0.034
CGAAGATGGG | 0.981 ± 0.03
AAAAGGGCGT | 0.9944 ± 0.0066
CGGATCTGAG | 1.01 ± 0.078
GGCTAAGGTT | 0.997 ± 0.015
TTGGATGAGG | 0.973 ± 0.048
TTTGCATTCA | 0.999 ± 0.038
CGGAAAGGGG | 0.978 ± 0.021
CATGCCAGTG | 1.049 ± 0.0013
GCCAGTATCC | 0.997 ± 0.014
GTGTAATGAG | 0.964 ± 0.014
CAGTACTCTT | 1.01 ± 0.03

Sequence | switch fluorescence ratio
GTTAGACTAT | 0.99057 ± 0.00092
TGCGTGTTGA | 1.04 ± 0.0081
GAAGCTGCCA | 1.031 ± 0.0067
TAGAAACGAG | 1.02 ± 0.087
ATTTTCGAGT | 1 ± 0.021
AAACCTGGCT | 1.41 ± 0.034
GCTCGAAGTT | 0.978 ± 0.029
TTTGATTTCG | 1.01 ± 0.024
TGTTTAAAAT | 1.02 ± 0.046
GGTGGGGGTA | 1.04 ± 0.042
TCCTCGAGCT | 1.82 ± 1.2
TGGGGGGGA | 1.03 ± 0.031
ACTACTTTCG | 1.03 ± 0.034
ACGGTTGTGG | 1.01 ± 0.026
CTTGTAGGGT | 1.01 ± 0.021
ATTGCAAATC | 1.027 ± 0.0094
GTTTTGTAAA | 0.975 ± 0.026
AGTTTGCTAG | 0.994 ± 0.034
TCGAGCAGGG | 1.07 ± 0.055
TGAATTTTTT | 0.993 ± 0.028
AGTTGATTGT | 0.9895 ± 0.0076
GGATGTTTGG | 0.975 ± 0.014
TTATGAGCGG | 1.02 ± 0.048
ATGTCAGGGA | 0.994 ± 0.019
AAGGGGGGGA | 1.01 ± 0.046
